Measured values taken from patent publication US20220177587A1 (Alpine Immune Sciences, Inc., published 2022).
One block for each binder: values may come before it.

How the values were obtained:
human PD-L1 = human PD-L1 (human, UniProt Q9NZQ7); experiment: flow cytometry, CHO/PD-L1 cells; MFI over CD80 WT IgV-Fc
human CTLA-4 = human CTLA-4 (human, UniProt P16410); experiment: flow cytometry, CHO/CTLA4 cells; MFI over CD80 WT IgV-Fc
human CD28 [1] = target: human CD28 (human, UniProt P10747); experiment: flow cytometry, Jurkat cells (CD28); MFI over CD80 WT IgV-Fc
human CD28 [2] = target: human CD28 (human, UniProt P10747); experiment: cell-based or functional assay

B1: CD80 E35D/M47V/N48K/V68M/K89N IgV-Fc, delta linker (Fc fusion)
chain: VIHVTKEVKEVATLSCGHNVSVEELAQTRIYWQKDKKMVLTMMSGDVKIWPEYKNRTIFDITNNLSIMILALRPSDEGTYECVVLKYENDAFKREHLAEVTLSVKTHTCPPCPAPEAEGAPSVFLFPPKPKDTLMISRTPEVTCVVVDVSHEDPEVKFNWYVDGVEVHNAKTKPREEQYNSTYRVVSVLTVLHQDWLNGKEYKCKVSNKALPAPIEKTISKAKGQPREPQVYTLPPSREEMTKNQVSLTCLVKGFYPSDIAVEWESNGQPENNYKTTPPVLDSDGSFFLYSKLTVDKSRWQQGNVFSCSVMHEALHNHYTQKSLSLSPG
Fold change to WT CD80 (human PD-L1): 439 fold
Fold change to WT CD80 (human CTLA-4): 2.6 fold
Fold change to WT CD80 (human CD28 [1]): 83.7 fold

B2: CD80 E35D/D46V/M47L/V68M/L85Q/E88D IgV-Fc, delta linker (Fc fusion)
chain: VIHVTKEVKEVATLSCGHNVSVEELAQTRIYWQKDKKMVLTMMSGVLNIWPEYKNRTIFDITNNLSIMILALRPSDEGTYECVVQKYDKDAFKREHLAEVTLSVKTHTCPPCPAPEAEGAPSVFLFPPKPKDTLMISRTPEVTCVVVDVSHEDPEVKFNWYVDGVEVHNAKTKPREEQYNSTYRVVSVLTVLHQDWLNGKEYKCKVSNKALPAPIEKTISKAKGQPREPQVYTLPPSREEMTKNQVSLTCLVKGFYPSDIAVEWESNGQPENNYKTTPPVLDSDGSFFLYSKLTVDKSRWQQGNVFSCSVMHEALHNHYTQKSLSLSPG
Fold change to WT CD80 (human PD-L1): 484 fold
Fold change to WT CD80 (human CTLA-4): 10.2 fold
Fold change to WT CD80 (human CD28 [1]): 74.7 fold

B3: SIP 2: Variant CD80 IgV-GSG4S-Inert Fc (E35D, D46V, M47L, and V68M) (Fc fusion)
chain: VIHVTKEVKEVATLSCGHNVSVEELAQTRIYWQKDKKMVLTMMSGVLNIWPEYKNRTIFDITNNLSIMILALRPSDEGTYECVVLKYEKDAFKREHLAEVTLSVKADGSGGGGSEPKSSDKTHTCPPCPAPEAEGAPSVFLFPPKPKDTLMISRTPEVTCVVVDVSHEDPEVKFNWYVDGVEVHNAKTKPREEQYNSTYRVVSVLTVLHQDWLNGKEYKCKVSNKALPAPIEKTISKAKGQPREPQVYTLPPSRDELTKNQVSLTCLVKGFYPSDIAVEWESNGQPENNYKTTPPVLDSDGSFFLYSKLTVDKSRWQQGNVFSCSVMHEALHNHYTQKSLSLSPG
CD28 costimulation EC50, Jurkat/IL-2 luciferase reporter; SIP 2 (Supernatant) from Donor 1 Pan T-cells (human CD28 [2]): 0.282 nM
CD28 costimulation EC50, Jurkat/IL-2 luciferase reporter; SIP 2 (Supernatant) from Donor 2 Pan T-cells (human CD28 [2]): 0.75 nM
CD28 costimulation EC50, Jurkat/IL-2 luciferase reporter; SIP 2 (Supernatant) from Jurkat cells (human CD28 [2]): 0.75 nM

The next lines start with the values.

CD28 costimulation EC50, Jurkat/IL-2 luciferase reporter; SIP 3 (Supernatant) from Donor 1 Pan T-cells (human CD28 [2]): 0.294 nM
CD28 costimulation EC50, Jurkat/IL-2 luciferase reporter; SIP 3 (Supernatant) from Donor 2 Pan T-cells (human CD28 [2]): 0.961 nM
CD28 costimulation EC50, Jurkat/IL-2 luciferase reporter; SIP 3 (Supernatant) from Jurkat cells (human CD28 [2]): 0.961 nM
B4: SIP 3: Variant CD80 IgV-GSG4S-Inert Fc (H18Y, E35D, M47V, V68M, and A71G) (Fc fusion)
chain: VIHVTKEVKEVATLSCGYNVSVEELAQTRIYWQKDKKMVLTMMSGDVNIWPEYKNRTIFDITNNLSIMILGLRPSDEGTYECVVLKYEKDAFKREHLAEVTLSVKADGSGGGGSEPKSSDKTHTCPPCPAPEAEGAPSVFLFPPKPKDTLMISRTPEVTCVVVDVSHEDPEVKFNWYVDGVEVHNAKTKPREEQYNSTYRVVSVLTVLHQDWLNGKEYKCKVSNKALPAPIEKTISKAKGQPREPQVYTLPPSRDELTKNQVSLTCLVKGFYPSDIAVEWESNGQPENNYKTTPPVLDSDGSFFLYSKLTVDKSRWQQGNVFSCSVMHEALHNHYTQKSLSLSPG

CD28 costimulation EC50, Jurkat/IL-2 luciferase reporter; SIP 4 (Supernatant) from Donor 1 Pan T-cells (human CD28 [2]): 0.153 nM
CD28 costimulation EC50, Jurkat/IL-2 luciferase reporter; SIP 4 (Supernatant) from Donor 2 Pan T-cells (human CD28 [2]): 0.221 nM
CD28 costimulation EC50, Jurkat/IL-2 luciferase reporter; SIP 4 (Supernatant) from Jurkat cells (human CD28 [2]): 0.221 nM
B5: SIP 4: Variant CD80 IgV-GSG4S-Inert Fc (H18Y, A26P, E35D, M47I, V68M, and A71G) (Fc fusion)
chain: VIHVTKEVKEVATLSCGYNVSVEELPQTRIYWQKDKKMVLTMMSGDINIWPEYKNRTIFDITNNLSIMILGLRPSDEGTYECVVLKYEKDAFKREHLAEVTLSVKADGSGGGGSEPKSSDKTHTCPPCPAPEAEGAPSVFLFPPKPKDTLMISRTPEVTCVVVDVSHEDPEVKFNWYVDGVEVHNAKTKPREEQYNSTYRVVSVLTVLHQDWLNGKEYKCKVSNKALPAPIEKTISKAKGQPREPQVYTLPPSRDELTKNQVSLTCLVKGFYPSDIAVEWESNGQPENNYKTTPPVLDSDGSFFLYSKLTVDKSRWQQGNVFSCSVMHEALHNHYTQKSLSLSPG
